One substance from patent US20160139137 can be followed below.

Data set [1] has as its system T1, Pro-active peptide (NH2-Cys-Lys-Arg-Val-Lys-TAMRA, SEQ ID NO: 2).
T1 sequence: CKRVK

Data set [2] relates to T2, In-active peptide (NH2-Cys-Lys-Pro-Val-Lys-TAMRA, SEC ID NO: 3).
T2 sequence: CKPVK

Turning to Trypsin (13.000-20.000 units/mg), in data set [1], the “fluorescence emission of QD660@SiO2@QD540@SiO2 nanoparticles at 25 µg/L versus 350 µg/L trypsin” value is recorded as “Increasing the enzyme concentration led to faster recovery of the original emission at 540 nm”; the “fluorescence emission spectra of the one-colour QD540@SiO2 system after incubation with trypsin (loss of FRET on peptide cleavage)” value is “The spectroscopic profiles further demonstrated the existence of FRET processes between the QD540@SiO2 nanospheres and the “pro-active” TAMRA-labelled peptide”; the “ratio of PL emission peaks I540/I660 during enzymatic digestion for 120 minutes at 25-350 µg/L trypsin” value is “There was a direct relationship between the enzymatic digestion rate and the enzyme concentration”. Moreover, the “fluorescence emission spectra of the one-colour QD540@SiO2 system after incubation with trypsin” value in data set [2] is reported as “the control sample with the “in-active” QD540@SiO2 system, as expected, did not show any significant change in the fluorescence emission”.
